Holding throughout (assay type): in vivo
Data set [1] can be described thus: Pharmacokinetics in rats by intravenous route. To be noted: 80 μg/mL at 1 mL/kg. The method, then: (§1) Each sample was adjusted to 80 μg/mL by dilution with 25 mmol/L citrate-phosphate buffer (pH 5.0) containing 100 mmol/L NaCl and 0.05 vol % Tween 20 to give a solution for administration. Male SD rats at 6 weeks of age (CLEA Japan, Inc.) were provided for this experiment. Intravenous injection was performed on rats having polyethylene tubes (SP-31, Natsume Seisakusho Co., Ltd.) inserted into the femoral artery and vein. The solutions thus prepared were each administered at a dose of 1 mL/kg through a polyethylene tube inserted into the femoral vein, and blood was collected through a polyethylene tube inserted into the femoral artery before administration and at 5, 15, 30 and 45 minutes as well as 1, 2, 4, 6, 8 and 24 hours after administration. Subcutaneous administration was performed on rats having polyethylene tubes inserted into the femoral artery. The solutions prepared above were each subcutaneously administered at a dose of 1 mL/kg to the dorsal neck region of the rats, and blood was collected in the same manner as used for intravenous injection. These blood samples were centrifuged to collect plasma and stored at −40° C. until assayed for PTH(1-34) or PEG-PTH(1-34) levels.
(§2) The level of PTH(1-34) or PEG-PTH(1-34) was determined by RIA analysis using a Rat PTH IRMA Kit (Immutopics). A Cobra Quantum Model 5005 gamma counter (Packard) was used to measure radioactivity for each sample. The plasma level of PTH(1-34) or PEG-PTH(1-34) was calculated from a calibration curve prepared using PTH(1-34) or PEG-PTH(1-34). The Winnonlin program Ver. 2.1 (Scientific Consulting Inc.) was used to analyze the time course of changes in the calculated plasma PTH(1-34) or PEG-PTH(1-34) levels (FIG. 3: by intravenous route; FIG. 4: by subcutaneous route) to calculate the following as pharmacokinetic parameters: time required to reach the maximum plasma level (Tmax); maximum plasma level (Cmax); area under the curve of plasma levels (AUC); plasma half-life (t1/2); total body clearance (Cltotal); mean residence time in the body (MRT); and bioavailability (BA). […]

Data set [2] in a line: Pharmacokinetics and bioavailability in rats by subcutaneous route. As to the method: as §1, §2
Data set [3] can be described thus: Hypercalcemic effect of PEG-PTH(1-34) in normal male BDF1 mice. As to the method:
(§3) 2 k and 5 k PEG-PTH(1-34) were also adjusted similarly to 30 nmol/mL (calculated as PTH) and allowed to stand on ice immediately before administration.
(§4) Male BDF1 mice at 5 weeks of age (Charles River Japan, Inc.) were measured for their body weight. Immediately before drug administration, blood was collected by orbital puncture into heparinized capillary tubes and measured for baseline levels of blood ionized calcium and pH using a Ca^2+/pH analyzer (Model 348/Bayer Medical Ltd.) to give the corrected level of ionized calcium at pH 7.4 for each sample. The mice received subcutaneous administration of each drug at a dose of 5 mL/kg. […] At 1, 3 and 6 hours after administration, blood was collected by orbital puncture to monitor the time course of corrected blood ionized calcium levels.

A short description of data set [4]: Hypercalcemic effect of PEG-PTH(1-34) in normal female DDY mice. As to the method:
as §3, §4
The same experiment was repeated on female DDY mice at 5 weeks of age (Charles River Japan, Inc.). The mice received subcutaneous administration of each drug at a dose of 5 mL/kg. […] At 1, 3 and 6 hours after administration, blood was collected by orbital puncture to monitor the time course of corrected blood ionized calcium levels.

Data set [5] can be described thus: Hypotensive effect in anesthetized rats. To be noted: sc. As to the method: The mono-methoxy 5 k PEG-PTH(1-34) prepared in Example 1(2) was also adjusted similarly to 36.5, 18.3 and 9.1 μg/mL (calculated as PTH(1-34)). The samples thus prepared were then stored on ice and restored to room temperature about 30 minutes before administration.
Female SD rats at 10 weeks of age (Charles River Japan, Inc.) were anesthetized by intraperitoneal administration of 50 mg/kg pentobarbital sodium (Abbott Laboratories). A catheter for blood pressure measurement and a catheter for anesthesia maintenance were inserted into the femoral artery and vein, respectively, of each rat. Anesthesia was maintained using a syringe pump (Terumo Corporation) to ensure continuous injection (at 22.5 mg/kg/hour) of pentobarbital sodium (powder form, Tokyo Kasei Kogyo Co., Ltd.) dissolved in physiological saline (Otsuka Pharmaceutical Co., Ltd.). On the other hand, each catheter for blood pressure measurement was filled with 100 U/mL heparin sodium (Novo Nordisk A/S) in physiological saline. To measure systemic blood pressure, a pressure transducer (Nihon Kohden Corporation) was connected to the catheter for blood pressure measurement and signals from the transducer were input to a blood pressure amplifier (Nihon Kohden Corporation). The resulting data were averaged for use as an indicator of systemic blood pressure. The output of systemic blood pressure was, in turn, input to a measuring unit for instantaneous heart rate (Nihon Kohden Corporation) to determine heart rate. These parameters were continuously recorded on a thermal pen recorder (Graphtec Corporation) at a speed of 5 mm/min. After surgery, an injection needle for administration of a test substance was inserted into the dorsal subcutaneous region of each rat. After each parameter had stabilized, test drugs were administered. […] This figure illustrates changes in blood pressure induced by administration of a negative control (buffer), 50 μg/kg hPTH (1-34) and 36.5 μg/kg 5 k PEG-PTH(1-34) in this order from the upper panel. In addition, the average value of blood pressure before PTH administration and the value at the maximum blood pressure drop after administration were measured for each case to determine the difference between these two values. […] The vertical axis represents the maximum blood pressure drop (mmHg) and the horizontal axis represents the amount of PTH administered.

Where [6] appears, read: subcutaneous, 80 μg/mL at 1 mL/kg.

For the substance “5k PEG-hPTH(1-34): hPTH(1-34) reacted with mPEG 5 k-SPA, fraction having one 5 kDa PEG molecule per PTH molecule”, in data set [1], the AUC was 178.547 ng·h/mL, the Cltotal came to 449.4 mL/h/kg, the MRT was 2.578 h and the t ½ was 5.706 h. Moreover, the BA in data set [2] (subcutaneous route) is recorded as about 71.0%. Further, in data set [2] (setting [6]), the AUC turned out to be 126.793 ng·h/mL, the MRT was 5.706 h, the Tmax worked out at 48.8 min and the “t ½” value is given as 6.758 h. In data set [3] (150 nmol/kg sc), the “increase in blood ionized calcium levels (in words)” value is recorded as “gradual increase in blood ionized calcium levels to reach the same maximum value as observed with hPTH(1-34)”. Also, the “time of maximum increase in blood ionized calcium levels after administration” value in data set [3] (sc, hPTH(1-34) 50-500 nmol/kg, PEG-PTHs 150 nmol/kg) is 3 h. In addition, the “increase in blood ionized calcium levels (in words)” value in data set [4] (150 nmol/kg sc) is listed as “gradual increase in blood ionized calcium levels to reach the same maximum value as observed with 500 nmol/kg hPTH(1-34)”. Also, the “time of maximum increase in blood ionized calcium levels after administration” value in data set [4] (sc, hPTH(1-34) 50-500 nmol/kg, 5 k PEG-PTH(1-34) 150 nmol/kg) was 3 h. For the same substance, the “hypotensive effect after administration (in words)” value in data set [5] (anesthetized female SD rats) is recorded as “mild hypotensive effect after administration”. Moreover, the “hypotensive effect over doses, maximum blood pressure drop (in words)” value in data set [5] (anesthetized rats, hPTH(1-34) 12.5-50 μg/kg, 5 k PEG-PTH(1-34) 9.1-36.5 μg/kg) is listed as “much weaker effect than hPTH(1-34) when administered at a higher dose”.

The term AUC denotes concentration integrated over time. Read a low AUC as low exposure. The term MRT denotes the average time that molecules of a dose stay in the body. As a reminder, the Tmax is the time from dosing to the highest level.

The values are drawn from patent publication US20050148763A1, “Peg-binding pth or peg-binding pth derivative” (Chugai Seiyaku Kabushiki Kaisha, priority 2002, published 2005).
